Among the data in publication PMC2593743 (Nature structural & molecular biology, 2008) are Kd values, retold here.

Assay [1] concerns the target T1, human spastin MIT domain (residues 112-195), purified (human, UniProt Q9UBP0-1 112-195).
T1 sequence (looked up): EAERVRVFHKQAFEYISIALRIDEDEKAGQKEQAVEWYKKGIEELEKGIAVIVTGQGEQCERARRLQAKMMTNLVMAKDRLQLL
The assay can be described thus: SPR.

In assay [2] the target is T2, VPS4A MIT domain, recombinant (His6-VPS4 MIT) (UniProt Q9UN37 2-80).
T2 sequence (looked up): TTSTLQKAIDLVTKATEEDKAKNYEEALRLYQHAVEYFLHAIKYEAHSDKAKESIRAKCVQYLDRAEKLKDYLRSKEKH
Description: SPR. (Surface plasmon resonance follows binding to a sensor surface in real time, without labels.)

B1: polyhistidine-tagged CHMP1B-CTR (residues 126-199), wild type (domain or fragment, human, UniProt Q7LBR1 126-199, looked up)
chain: DVQTQQMEDTMSSTTTLTTPQNQVDMLLQEMADEAGLDLNMELPQGQTGSVGTSVASAEQDELSQRLARLRDQV
In general, Kd refers to the free concentration of one partner at which half of the binding sites on the other are occupied at equilibrium, for simple one-to-one binding. As to B1, the dissociation constant Kd came to 12 µM in assay [1] and 33 µM in assay [2].
